Biological target: T1, His-tagged SMAD4 WT (Mothers against decapentaplegic homolog 4) (UniProt Q13485 1-552)
T1 sequence (looked up): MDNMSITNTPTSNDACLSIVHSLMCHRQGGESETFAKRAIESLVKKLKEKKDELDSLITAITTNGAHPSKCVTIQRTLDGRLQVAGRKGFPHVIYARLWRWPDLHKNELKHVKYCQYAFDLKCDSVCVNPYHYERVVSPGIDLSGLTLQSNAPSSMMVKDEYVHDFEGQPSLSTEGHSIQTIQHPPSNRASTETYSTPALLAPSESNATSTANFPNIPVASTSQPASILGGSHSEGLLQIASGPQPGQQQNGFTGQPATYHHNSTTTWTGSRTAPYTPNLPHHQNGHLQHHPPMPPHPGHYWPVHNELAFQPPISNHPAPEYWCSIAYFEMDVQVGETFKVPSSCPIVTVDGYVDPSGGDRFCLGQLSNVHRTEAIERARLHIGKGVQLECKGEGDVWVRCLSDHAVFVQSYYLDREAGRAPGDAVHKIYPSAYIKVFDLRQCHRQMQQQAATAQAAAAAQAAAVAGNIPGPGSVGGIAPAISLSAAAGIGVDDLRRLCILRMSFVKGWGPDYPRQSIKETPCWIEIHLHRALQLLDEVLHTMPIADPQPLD
Experiment: cell-based or functional assay

SBE4-luciferase reporter activity upon TGFβ (10 ng/ml) stimulation, HEK293T cells with endogenous SMAD4 and SMAD3, fold-of-change: > 3 fold
B1: Flag-tagged SMAD3 WT (natural protein, UniProt P84022 1-425, looked up)
chain: MSSILPFTPPIVKRLLGWKKGEQNGQEEKWCEKAVKSLVKKLKKTGQLDELEKAITTQNVNTKCITIPRSLDGRLQVSHRKGLPHVIYCRLWRWPDLHSHHELRAMELCEFAFNMKKDEVCVNPYHYQRVETPVLPPVLVPRHTEIPAEFPPLDDYSHSIPENTNFPAGIEPQSNIPETPPPGYLSEDGETSDHQMNHSMDAGSPNLSPNPMSPAHNNLDLQPVTYCEPAFWCSISYYELNQRVGETFHASQPSMTVDGFTDPSNSERFCLGLLSNVNRNAAVELTRRHIGRGVRLYYIGGEVFAECLSDSAIFVQSPNCNQRYGWHPATVCKIPPGCNLKIFNNQEFAALLAQSVNQGFEAVYQLTRMCTIRMSFVKGWGAEYRRQTVTSTPCWIELHLNGPLQWLDKVLTQMGSPSIRCSSVS
